The supplement of paper PMC10567573

B1: TMEM192 (parent)
chain: ILGKVILWILHLLLECYIQYHHSK
B2: OAS1 (parent)
chain: TPAKSLDKFIEDYLLPDTCFRMQI

Variants of: B1
Test: protein stability index of a GFP-peptide fusion (GPS, HEK-293T) (PSI 1-6); higher = more stable
Conditions: c terminus: a fixed tail appended
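Also: lentivirally expressed fusions sorted by FACS into six bins by GFP to DsRed ratio, PSI derived from sequencing read proportions per bin multiplied by bin number.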

Protein stability index, by site and new letter:
S23: I 2.68 | P 1.54 | N 4.27 | V 4.52 | G 3.2 | W 3.3 | K 2.82 | M 2.49 | Y 2.72 | Q 2.32 | L 3.84 | R 3.3
K24: A 2.69 | E 3.43 | L 2.65 | F 3.92 | I 2.38 | N 3.06 | P 3 | W 3.65 | G 3.14 | T 3.66 | V 2.48 | C 2.89 | H 2.07 | D 2.86 | R 3.46 | M 3.05

Variants of: B2
Test: as above
Conditions: c terminus: a fixed tail appended

Protein stability index: each site, then its substitutions
D17: K 2.51 | T 2.03 | R 2.98 | L 3.49 | P 3.25 | S 2.79 | M 2.99 | Y 2.32 | N 1.77 | Q 1.88 | A 2.9 | E 2.69 | H 2.43 | F 3.31 | G 3.94
L14: F 3.94 | W 2.18 | S 1.74 | K 2.37 | H 2.62 | D 1.77 | E 1.74 | T 2.05 | C 2.35 | G 2.84 | N 3.44 | R 1.8 | Q 1.62 | P 2.46 | M 3.5 | I 2.08 | V 2.83 | Y 3.1
D7: I 2.96 | S 3.08 | M 2.87 | Q 2.94 | H 3.9 | N 2.1 | T 1.25 | L 2.42 | A 2.77 | C 2.77 | P 1.73 | W 3.11 | R 2.9 | Y 2.21 | K 2.05
Y13: W 3.04 | A 1.98 | Q 1.5 | F 3.4 | T 1.9 | N 1.85 | C 3.56 | G 1.85 | V 2.87 | E 1.79 | R 1.27 | P 1.57 | S 2.22 | M 2.12 | D 2.36 | L 3.57 | I 2.54
E11: D 2.34 | I 2.61 | P 3.89 | N 3.04 | A 2.77 | F 2.29 | W 2.84 | V 3.93 | M 3.78 | Y 1.66 | G 3 | H 1.26 | T 2.33 | R 4.73 | S 1.97 | L 3.59 | Q 2.19 | K 2.83 | C 2.38
D12: Q 2.92 | C 1.76 | R 3.33 | K 2.75 | W 2.51 | N 2.91 | Y 2.19 | G 1.79 | A 3.14 | T 2.58 | F 2.97 | H 2.25 | L 2.81 | S 2.1 | M 2.77 | E 2.14 | I 1.4
P2: I 2.16 | T 2.82 | Q 2.97 | G 3.49 | L 2.82 | R 2.81 | S 1.69 | H 3.76 | D 1.92 | N 3.68 | V 1.74 | M 3.28 | F 3.08 | W 3.86 | C 3.55
F9: T 2.95 | N 3.1 | Q 2.15 | G 1.62 | M 3.26 | Y 1.96 | R 2.08 | V 3.9 | K 2.13 | C 2.66 | L 3.52 | P 1.97 | H 2.91 | W 3.55 | A 2.42 | S 2.32 | E 1.75 | D 2.17
P16: H 2.28 | Y 1.82 | A 2.73 | Q 3.14 | T 2.68 | K 2.78 | R 3.61 | E 1.93 | N 2.65 | I 2.41 | W 1.9 | V 3.9 | M 1.84 | S 2.49 | C 2.44
C19: F 2.51 | G 2.44 | A 2.88 | E 1.43 | D 1.62
K8: C 2.99 | E 3.06 | S 2.43 | P 3.17 | G 1.62 | V 3.42 | M 2.04 | A 2.58 | D 2.58 | T 3.17 | H 1.77 | Q 1.68 | L 3.06 | R 3.07 | W 1.98 | N 2.09
T1: N 3.42 | Y 2.84 | C 2.39 | P 2.51 | E 1.7 | G 3.6 | V 1.06 | H 3.45 | A 2.48 | I 2.59 | L 3.21 | K 2.84 | R 4.07 | M 1.9 | D 1.82 | S 2.13 | Q 2.42 | W 2.39
L6: W 2.19 | E 1.49 | C 2.68 | T 3.08 | Y 3 | P 2.43 | Q 2.47 | R 2.55 | V 1.97 | M 2.18 | K 1.61 | F 4.79 | H 2.66 | A 2.89 | I 3.63 | D 1.38 | N 2.45 | S 1.94
K4: D 2.19 | H 2.59 | C 2.29 | P 2.13 | I 1.9 | F 2.9 | M 1.67 | W 3.85 | S 2.24 | L 2.23 | T 2.48 | N 2.52
S5: Y 2.89 | E 1.74 | I 2.43 | D 2.02 | M 2.42 | A 2.52 | C 2.19 | H 1.69 | L 3.15 | V 3.06 | F 1.63 | T 2.86 | R 3.08 | N 2.78 | Q 2.4 | W 1.99 | K 2.14
T18: W 2.58 | A 2.25 | P 1.59 | L 2.42 | Q 2.89 | D 3.16 | F 2.45 | G 3.04 | K 1.83 | R 3.05 | I 2.04 | N 2.41 | E 3.65 | M 2.36 | C 3.48 | H 2.22 | Y 3.93 | V 2.23
L15: T 1.74 | V 3.19 | I 3.88 | K 2.07 | S 2.26 | F 3.79 | W 2.56 | Q 3.04 | R 3.08 | A 1.72 | D 1.74 | P 2.31 | H 2.12 | G 2.43 | N 2.21 | E 3.04
A3: E 2.88 | T 1.64 | L 2.85 | N 2.47 | V 3.63 | F 3.88 | Y 1.96 | H 2.99 | Q 2.56 | G 3.77 | R 2.23 | S 2.42 | W 2.58 | K 2.57 | I 3.83 | M 2.11 | P 2.49 | C 3.23 | D 1.54
I10: Y 2.38 | N 1.51 | A 2.48 | Q 1.67 | L 3.56 | S 1.7 | P 1.87 | R 2.78 | M 3.83 | H 1.92 | K 1.31 | G 2.23 | E 2.52 | D 1.55 | T 2.35 | C 3.19 | V 3.54 | F 3.41
